Data taken from patent US20200281934A1, “SSTR-TARGETED CONJUGATES AND FORMULATIONS THEREOF” (TARVEDA THERAPEUTICS, INC., priority 2017, published 2020).
Like-named read-outs stand apart in the source and are kept apart here.

Key:
Format in all cases: in vivo, human
[1] = Phase 1 safety, tolerability and maximum tolerated dose; settings: patients
Excerpt: The objectives of Phase 1 were to assess the safety and tolerability and determine the maximum tolerated dose and recommended Phase 2 dose of Conjugate 57 when administered intravenously on an every 3 week schedule in patients with somatostatin receptor 2 expressing advanced cancers (including gastroenteropancreatic or lung or thymus or other neuroendocrine tumors or small cell lung cancer or large cell neuroendocrine carcinoma of the lung). It also characterized both acute and chronic toxicities of Conjugate 57, characterized key pharmacokinetic parameters of Conjugate 57, DM1, and peptide ligand from Conjugate 57, assessed the potential of Conjugate 57 to induce anti-drug antibodies, and assessed preliminary anti-tumor activity by using standard tumor response criteria (RECIST 1.1) and pharmacodynamic (PDc) biomarker changes that include chromogranin A (CgA), neuron-specific enolase (NSE), and circulating tumor cells (CTCs) in the blood, and 5-hydroxyindoleacetic acid (5-HIAA) in the urine. In addition, the study explored the relationships between tumor SSTR2 expression as measured by multiple modalities (somatostatin analog radioimaging, immunohistochemistry, CTCs, or exosome analyses) and PK, efficacy, safety, anti-Conjugate 57 antibodies, and PDc biomarker changes in the blood. […]
(§1) Disease response was assessed by duration of response and RECIST 1.1. […]

[2] = tested on: somatostatin receptor 2 expressing advanced cancers; assay: Phase 1 preliminary anti-tumor activity (RECIST 1.1, duration of response)
Excerpt: (§2) The objectives of Phase 1 were to assess the safety and tolerability and determine the maximum tolerated dose and recommended Phase 2 dose of Conjugate 57 when administered intravenously on an every 3 week schedule in patients with somatostatin receptor 2 expressing advanced cancers (including gastroenteropancreatic or lung or thymus or other neuroendocrine tumors or small cell lung cancer or large cell neuroendocrine carcinoma of the lung). It also characterized both acute and chronic toxicities of Conjugate 57, characterized key pharmacokinetic parameters of Conjugate 57, DM1, and peptide ligand from Conjugate 57, assessed the potential of Conjugate 57 to induce anti-drug antibodies, and assessed preliminary anti-tumor activity by using standard tumor response criteria (RECIST 1.1) and pharmacodynamic (PDc) biomarker changes that include chromogranin A (CgA), neuron-specific enolase (NSE), and circulating tumor cells (CTCs) in the blood, and 5-hydroxyindoleacetic acid (5-HIAA) in the urine. In addition, the study explored the relationships between tumor SSTR2 expression as measured by multiple modalities (somatostatin analog radioimaging, immunohistochemistry, CTCs, or exosome analyses) and PK, efficacy, safety, anti-Conjugate 57 antibodies, and PDc biomarker changes in the blood. Phase 1 study had two parts: Phase 1 Part A (dose escalation) and Phase 1 Part B (early expansion).
All patients were required to have SSTR2 expressing tumors. Tumor SSTR2 expression was determined by imaging within the preceding approximately 6 months, with Octreoscan or ^68Ga-DOTATATE, ^68Ga-DOTATOC, or ^68Ga-DOTANOC.
The acetate salt of Conjugate 57 was administered to a patient as a 1 hour IV infusion once on an every 3 week schedule to escalating cohorts of 2-6 patients. Patients received Conjugate 57 treatment for 3 weeks, 6 weeks, 9 weeks, 12 weeks, 15 weeks, 18 weeks, 21 weeks, 24 weeks, 27 weeks, 30 weeks, 33 weeks, 36 weeks, 39 weeks, 42 weeks, 45 weeks, 48 weeks, 51 weeks, 54 weeks, 57 weeks, or 60 weeks. There were 7 Cohorts with the starting does of 1.0 mg and the highest dose of 25.0 mg. The doses of Conjugate 57 given to pateints were flat: 1.0 mg, 2.0 mg, 4.0 mg, 8.0 mg, 12.0 mg, 18.0 mg and 25.0 mg. Conjugate 57 concentrate for Solution for Injection is a sterile concentrated liquid containing Conjugate 57, mannitol, Polyoxyl 15 Hydroxystearate and acetate buffer. Each dosage unit contains 2.5 mg of Conjugate 57 (free-form) per mL, 50 mg/mL mannitol, 20 mg/mL Polyoxyl 15 Hydroxystearate and pH 4.0-4.8 acetate buffer in a stoppered 10 mL clear vial. Prior to administration, the product was diluted with 5% Mannitol Injection USP. […]
as §1

[3] = tested on: GI (large bowel) NET; assay: Circulating biomarkers of neuroendocrine tumors and symptoms in a GI NET patient; settings: 18 mg
Excerpt: as §2
A patient with well differentiated, intermediate grade GI (large bowel) NET with metastasis to lymph nodes, bone, lung, and brain was treated with Conjugate 57 at 18 mg. Their tumors progressed on all prior therapies: lanreotide, mTOR inhibitor, and/or 177Lu-DOTATATE. […] Circulating biomarkers of neuroendocrine tumors (NETs), including chromogranin A (CgA), neuron specific enolase (NSE) and circulating tumor cells (CTC), were collected and measured over time. Increased CgA is predictive of poor morphological response, progression free survival (PFS), and overall survival (OS) in pancreatic NETs. Decline in plasma concentration of NSE has been associated with response to treatment. Changes in CTCs has been associated with response to treatment in patients with NETs.

[4] = Phase 1 plasma pharmacokinetics of Conjugate 57 during dose escalation; settings: for AUC(0-inf) / Cmax / clearance / Vd: mean, 1 hour IV infusion; for Vd: read-out: Vz
Protocol: The acetate salt of Conjugate 57 was administered to a patient as a 1 hour IV infusion once on an every 3 week schedule to escalating cohorts of 2-6 patients. Patients received Conjugate 57 treatment for 3 weeks, 6 weeks, 9 weeks, 12 weeks, 15 weeks, 18 weeks, 21 weeks, 24 weeks, 27 weeks, 30 weeks, 33 weeks, 36 weeks, 39 weeks, 42 weeks, 45 weeks, 48 weeks, 51 weeks, 54 weeks, 57 weeks, or 60 weeks. There were 7 Cohorts with the starting does of 1.0 mg and the highest dose of 25.0 mg. The doses of Conjugate 57 given to pateints were flat: 1.0 mg, 2.0 mg, 4.0 mg, 8.0 mg, 12.0 mg, 18.0 mg and 25.0 mg. Conjugate 57 concentrate for Solution for Injection is a sterile concentrated liquid containing Conjugate 57, mannitol, Polyoxyl 15 Hydroxystearate and acetate buffer. Each dosage unit contains 2.5 mg of Conjugate 57 (free-form) per mL, 50 mg/mL mannitol, 20 mg/mL Polyoxyl 15 Hydroxystearate and pH 4.0-4.8 acetate buffer in a stoppered 10 mL clear vial. Prior to administration, the product was diluted with 5% Mannitol Injection USP. The resulting diluted Conjugate 57 formulation can be infused intravenously.
Serial PK samples were collected prior, during and up to 10 hours after the start of infusion on Day 1 of Cycle 1 and Cycle 3.
Cmax is the maximum (or peak) serum concentration of a drug after the drug has been administrated and before the administration of a second dose. Area under curve to infinity (AUCinf) is a is a theoretical measure of the total exposure of drug to the body from administration till all the drug is eliminated. Clearance (CL) is the volume of plasma cleared of drug per unit time. It is an index of how well a drug is removed irreversibly from circulation. Volume of distribution (Vz) was also measured. Vz represents the degree to which a drug is distributed in body tissue rather than the plasma.

[5] = human, plasma, patients, dose 1 mg
[6] = human, plasma, patients, dose 2 mg
[7] = human, plasma, patients, dose 4 mg
[8] = human, plasma, patients, dose 8 mg
[9] = human, plasma, patients, dose 12 mg
[10] = human, plasma, patients, dose 18 mg
[11] = human, plasma, patients, dose 25 mg

COc1cc2cc(c1Cl)N(C)C(=O)C[C@H](OC(=O)[C@H](C)N(C)C(=O)CCSSC[C@H](NC(=O)[C@@H]1CSSC[C@H](NC(=O)[C@H](N)Cc3ccccc3)C(=O)N[C@@H](Cc3ccc(O)cc3)C(=O)N[C@H](Cc3c[nH]c4ccccc34)C(=O)N[C@@H](CCCCN)C(=O)N[C@@H]([C@@H](C)O)C(=O)N1)C(N)=O)[C@]1(C)O[C@H]1[C@H](C)[C@@H]1C[C@@](O)(NC(=O)O1)[C@H](OC)/C=C/C=C(\C)C2 [Conjugate 57]
tolerability ([1]; 1.0-25.0 mg IV every 3 weeks): well tolerated
maximum tolerated dose (MTD) ([1]; IV infusion every 3 weeks, flat dose): 18 mg
ongoing patients with SD for 44 and 45 weeks ([2]; NET patients): 2 patients
patients with stable disease (SD) at 9 weeks ([2]; among 15 NET patients evaluable for response): 11 patients
patients with target lesion shrinkage ([2]; dose range 8-18 mg): 3 patients
patients with SD sustained for 18-45 weeks ([2]; of the 11 NET patients with SD at 9 weeks): 8 patients
disease related symptoms of flushing [3]: disappeared after first dose
chromogranin A (CgA) level ([3]; FIG. 2A): decreased over time
neuron specific enolase (NSE) level ([3]; FIG. 2B): decreased over time
circulating tumor cells (CTC) level ([3]; FIG. 2C): decreased over time
AUCinf relative to efficacious exposure threshold seen in pre-clinical xenograft studies of SCLC models ([4]; 12 mg and higher dose cohorts): above efficacious exposure threshold
half-life ([4]; human, intravenous, plasma, patients, across all dose cohorts, read-out: Median t½ (half-life) (converted)): 1.7 h
AUC(0-inf) [4, 5]: 0.0146 µM·h
Cmax [4, 5]: 7.47 nM
clearance [4, 5]: 633 mL/min
Vd [4, 5]: 65 L
AUC(0-inf) [4, 6]: 0.0379 µM·h
Cmax [4, 6]: 20.5 nM
clearance [4, 6]: 583 mL/min
Vd [4, 6]: 80 L
AUC(0-inf) [4, 7]: 0.118 µM·h
Cmax [4, 7]: 74.3 nM
clearance [4, 7]: 333 mL/min
Vd [4, 7]: 60 L
AUC(0-inf) [4, 8]: 0.341 µM·h
Cmax [4, 8]: 186 nM
clearance [4, 8]: 250 mL/min
Vd [4, 8]: 37 L
AUC(0-inf) [4, 9]: 0.584 µM·h
Cmax [4, 9]: 293 nM
clearance [4, 9]: 217 mL/min
Vd [4, 9]: 33 L
AUC(0-inf) [4, 10]: 0.666 µM·h
Cmax [4, 10]: 381 nM
clearance [4, 10]: 267 mL/min
Vd [4, 10]: 36 L
AUC(0-inf) [4, 11]: 1.31 µM·h
Cmax [4, 11]: 741 nM
clearance [4, 11]: 183 mL/min
Vd [4, 11]: 50 L
